Test results: patent US20170052184A1 (published 2017)

T1: HCV Core1-169 (hepatitis C virus (HCV-1), UniProt P26664 1-169)
T1 sequence: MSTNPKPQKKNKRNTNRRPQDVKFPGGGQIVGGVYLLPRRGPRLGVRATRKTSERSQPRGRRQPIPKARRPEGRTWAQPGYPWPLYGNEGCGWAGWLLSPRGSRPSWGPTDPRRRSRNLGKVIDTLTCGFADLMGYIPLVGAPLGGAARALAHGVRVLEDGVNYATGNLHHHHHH

B1: HCV 208B-517 (antibody, V domains shown)
VH: QVQLKQSGPGLVQPSQSLSITCTVSGFSLITHGVHWVRQSPGKGLEWLGVIWSGGSTDYNAAFISRLSISKDTSKSQVFLKMSSLQADDTAIYYCARNGGATAFDYWGQGTTLTVSS
VL: DIVMTQSPATLSVTPGDRVSLSCRASQSISDYLHWYQQKSHESPRLLIKYASQSISGIPSRFRGSGSGSHFTLSINSVEPEDVGVYYCQNGHSFPWTFGGGTKLEIKR
B2: HCV 208B-822 (antibody, V domains shown)
VH: QVQLKQSGPGLVQPSQSLSITCTVSGFSLITYGVHWVRQSPGKGLEWLGVIWGGGSTGYNAAFVSRLNITKDNSKSQVFFKMNSLQPDDTAIYYCARNGGATVFDYWGQGTTLTVSS
VL: DIVMTQSPATLSVTPGDRVSLSCRASQTISDYLHWYQQKSHESPRLLIKYASQSISGIPSRFSGSGSGSHFTLSINSVEPEDVGVYYCQNGHSFPWTFGGGTKLEIKR
B3: HCV 208B-911 (antibody, V domains shown)
VH: QVHLQQPGAELVRPGVSVKLSCKASGYTFTTYSINWMKQRPGQGLEWIGNIYPSTSHTNYNQKFRDKATMTVDKSSSTAYMQLSSPTSEDSAVYYCTINAYSMDYWGQGTSVTVSS
VL: QIVLTQSPEIMSASPGEKVTITCSASSSVSFMYWFQQKPGTSPKLWIYITSNLASGVPTRFSGSGSGTSYSLTISRMEAEDAATYYCQQRSSFPYTFGGGTKLEMKR
B4: HCV 208B-515 (antibody, V domains shown)
VH: QVQLQQPGAELVKPGASLKLSCRASGYTFTSYWIHWVKQRPGQGLEWIGEIDPSDSYTNYNQKFKGKATLTVDKSSRAAYMQLSSLTSEDSAVYYCARHYYGVFDSWGQGTKLTVSS
VL: QIVFTQYPAIMSASLGERVTMTCTASSSVTSSYLHWFQQKPGSSPKLWIYSTSNPGSGVPARFSGRGSGTSYSLSISSMEAEDAATYYCLQFHRSPWTFGGGTKLEIRR
B5: HCV 208A-1064 (antibody, V domains shown)
VH: EVQLQQSGPELVKPGASVKISCKTSGYTFTEYAMHWMKQSHGKSLEWIGGINPTNGDTIYNQKFKDKAKLTVDRSSSTAYMELRSLTSDDSALFYCARRELDYFASWGQGTTLTVSS
VL: DIVLTQSPASLIVSLGQTATISCRASQSVSTSRFSYLHWIQQKPGQPPKLLIKYASNLESGVPVRFSGSGSGTDFTLNIHPVEEEDTATYFCQHSWEFPFTFGSGTKLKIKR
B6: HCV 208A-920 (antibody, V domains shown)
VH: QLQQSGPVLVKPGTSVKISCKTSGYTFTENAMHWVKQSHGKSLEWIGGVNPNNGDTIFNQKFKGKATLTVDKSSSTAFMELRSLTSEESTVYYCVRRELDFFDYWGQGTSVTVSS
VL: DIVLTQSPASLAVSLGQRATISCRASQSVSTSRYSYMHWYQQKPGQPPKLLIKYASNLESGVPARFSGSGSGTDFTLNIHPVAEEDTAAYYCQHSWEFPFTFGSGTKLEIKR
B7: HCV 208A-293 (antibody, V domains shown)
VH: EVQLQQSGPELVKPGASVKISCKASGFTFTEYAMHWMKQSHGKSLEWIGGINPTNGDAIYNQKFKDKAKLTVDRSSSTAYMELRSLTSDDSALFYCARRELDYFPSWGQGTTLTVSS
VL: DIVLTQSPASLIVSLGQRATISCRASQSVSTSRFSYVHWIQQKPGQPPKLLIKYASNLESGVPVRFSGSGSGTDFILNIHPVEEEDTATYFCQHSWEFPFTFGSGTKLEIKR
B8: HCV 208A-110 (antibody, V domains shown)
VH: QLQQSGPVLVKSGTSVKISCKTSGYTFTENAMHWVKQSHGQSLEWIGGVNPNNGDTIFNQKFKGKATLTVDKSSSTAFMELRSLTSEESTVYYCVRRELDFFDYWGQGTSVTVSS
VL: DIVLTQSPASLAVSLGQRATISCRASQSVSTSRYSYMHWYQQKPGQPPKLLIKYASNLESGVPARFSGSGSGTDFTLNIHPVAEEDTAAYYCQHSWEFPFTFGSGTKLEIKR
B9: HCV 208B-1094 (antibody, V domains shown)
VH: EVQLQQSGPELVKPGASVKISCKTSGYTFTEYAMHWMKQSHGKSLEWIGGINPTNGDTIYNQRFKDKAKLTVDRSSSTAYMELRSLTSDDSALFYCARRELDYFASWGQGTTLTVSS
VL: DIVLTQSPASLIVSLGQTATISCRASQSLSTSRFSYVHWIQQKPGQPPKLLIKYASNLESGVPVRFSGSGSGTDFTLNIHPVEEEDTATYFCQHSWEFPFTFGSGTKLKIKR
B10: HCV 208A-133 (antibody, V domains shown)
VH: QLQQSGPVLVGPGASVMISCKTSGYTFTENAMHWVEQSHGKSLEWIGGVNPNNGDTIFNQKFKGKATLTVDKSSSTAFMEFRSLTSEESTVYYCVRRELDFFDYWGQGTSVTVSS
VL: DIVLTQSPASLAVSLGQRATISCRASQSVSTSRYSYMHWYQQKPGQPPKLLIKYASNLESGVPARFSGSGSGTDFTLNIHPVAEEDTATYYCQHSWEFPFTFGSGTKLEIKR
B11: HCV 208B-826 (antibody, V domains shown)
VH: DVQLVESGGGLVQAGGSRKLSCAASGFPFSSFGMHWVRQAPEKGLEWVASISSRTSKIYYADNLKGRFTISRDNPKNTLFLQMTSLGSEDTAMYYCVRSVFGNSYWFFDVWGAGTTVTVSS
VL: DIVLTQSPATLSVTPGDRVSLSCRASQRIYNYLHWYQQKSHESPRLLTKYASQSISGIPSRFSGSGSGTDFILTINSVETEDFGMYFCQQSNSWPLTFGAGTKLELRR
B12: HCV 208B-408 (antibody, V domains shown)
VH: EVKLVESGGGLVQPGGSLRLSCASSGFTFTDYYMSWVRQPPGKALEWLGFIRNKAYGYTTEFSASVNGRFTISRDDSQSVPYLQMNTLRAEDSATYYCARVLYYDYGGFAYWGQGTLVTVST
VL: DIQMTQSPASLSASVGETVTITCRASGNIHTYLAWYQQKQGKSPQLLVYNANTLADGVPSRFSGSGSGTQFSLKINSLQPDDFGSYYCQHFWSAPWTFGGGTQLEIKR
B13: HCV 208B-793 (antibody, V domains shown)
VH: EVKLVESGGGLVQPGGSLKLSCAASGFTFSSYAMSWVRQTPERRLEWVTYISNGGGSTYYSDTVKGRFTFSRDNAKNTLYLQMSSLKSEDTAMYYCARHGLGRTGFASWGQGTLVTVSA
VL: DIVMTQSHKFMSTSVGDRVSITCKASQDVGTAVAWYQQKPGQSPKLLIYWASTRHTGVPDRFTGSGSGTDFTLTISNVQSEDLADYFCQQYSNYLTFGAGTKLEVKR

Legend:
HCV Core1-169 [1] = biological target: T1, HCV Core1-169; assay: SPR sandwich, capture mAb C11-9
HCV Core1-169 [2] = biological target: T1, HCV Core1-169; assay: SPR sandwich, capture mAb C11-7
HCV Core1-169 [3] = biological target: T1, HCV Core1-169; assay: SPR sandwich, capture mAb C11-3
HCV Core1-169 [4] = biological target: T1, HCV Core1-169; assay: SPR sandwich, capture mAb C11-14
[5] = biological target: T2, HCV Core 134-171-TT Peptide (hepatitis C virus (HCV-1 numbering) …); assay: SPR, captured mAb, peptide analyte
T2 construct: also called ALRZ-9 peptide

| Binder | expected percent binding (HCV Core1-169 [1]) [%] | expected percent binding (HCV Core1-169 [2]) [%] | expected percent binding (HCV Core1-169 [3]) [%] | expected percent binding (HCV Core1-169 [4]) [%] | Kd [5] [nM] | koff [5] [s⁻¹] | kon [5] [M⁻¹ s⁻¹] |
| --- | --- | --- | --- | --- | --- | --- | --- |
| B1 | ≤ 1 | ≤ 1 | ≤ 1 | ≤ 1 | – | – | – |
| B2 | ≤ 1 | ≤ 1 | ≤ 1 | ≤ 1 | – | – | – |
| B3 | ≤ 1 | ≤ 1 | ≤ 1 | ≤ 1 | – | – | – |
| B4 | ≤ 1 | ≤ 1 | ≤ 1 | ≤ 1 | – | – | – |
| B5 | 10.5 | 19.6 | 16.3 | 16.3 | 0.21 | 0.00034 | 1.6e+06 |
| B6 | 13.2 | 22.9 | 19.3 | 19.1 | 0.39 | 0.00056 | 1.5e+06 |
| B7 | 11 | 20.9 | 17.9 | 16.4 | 0.11 | 0.00023 | 2.1e+06 |
| B8 | 9.4 | 21.1 | 15.7 | 14.8 | 0.33 | 0.00055 | 1.7e+06 |
| B9 | 19.8 | 28.4 | 24.4 | 27.8 | 0.16 | 0.00025 | 1.5e+06 |
| B10 | 5.8 | 13.9 | 9.8 | 9.3 | 0.41 | 0.0005 | 1.2e+06 |
| B11 | ≤ 1 | ≤ 1 | ≤ 1 | ≤ 1 | – | – | – |
| B12 | ≤ 1 | ≤ 1 | ≤ 1 | ≤ 1 | – | – | – |
| B13 | ≤ 1 | ≤ 1 | ≤ 1 | ≤ 1 | – | – | – |
